B1: PAX-interacting protein 1 (Mus musculus), Q6NZQ4 (parent)
chain: MSEPAPEVPEELFREVKYYAVGDIDPQVIQLLKAGKAKEVSYNALASHIISEDGDNPEVGEAREVFDLPVVKPSWVTLSVQCGALLPVNGFSPESCQIFFGLTACLSQVSSEDRSALWALVTFHGGSCQLNLNKKCTHLIVPEPKGEKYERAVKRTSIKIVTPDWVLDCVSEKRRKDEAFYHPRLIIYEEEEEEEEEGDNEEQDSQNEGSTEKSSVASSAVASPAEQPCSPKPRAEVSKGELMFDDSSDSSPEKQERSLNWAPAEAPPLNTAQRRLPQGKGPGLINLCANVPPVPGDILPPDMRGNLMAPGQNLQNSERSEILGTWSPAVRTLRNITNNADIQQINRPSNVAHILQSLSAPTKSLEQQVARGQQGHPNASAVLFGQAKGAPETHVLQQHHPPQQPQQQHPALHLQPQIMQLQQQQQQQQQQQQQPQPYPQPPSHQFPQQVHQHQFSQQQLQFPQQPLHPQQQLHRPQQQLQPFQQQHALQQQLHQLQQQQLQHHQLAQLQQQQQQQHNLLQQQQQQQQLQRLQQQQQMQNQAAHLSQASQALQHQVLPQQPLQLSLQPPPQQQQQQQLFGHDPAVEIPEESFLLGCVFAIADYPEQMSDKQLLATWKRIIQAHGGTVDPTFTSRCTHLLCASQVSSMYTQALRERKRCVTAHWLNTVLKKKKLMPPHRALHFPVAFPPGGKPCSQHIISVTGFVDNDRDDLKLMAYLAGAKYTGYLCRSNTVLICKEPSGLKYEKAKEWRIPCVNAQWLGDILLGNFEALRQVQYSRYTAFNMPDPFVPTPHLVLGLLDAWRTPVKVTAELLMGVRLPPKLKPNEVANIQPSSKRARIEDLPPPTKKLTPELTPLVLFTGFEPVQVQQYIKKLYILGGEVAECTKKCTHLIASKVTRTVKFLTAISVVKHIVTPDWLEECFKRQTFIDEQNYILRDAEAEVLFSFSLEESLKRAHVSPLFKTKYFYITPGICPSLATMKAIVECAGGKVLAKQPSFRKLMEHKQNKSLSEIILISCENDLHLCREYFARGIDVHNAEFVLTGVLTQTLDYESYKFN

Variants of: B1
Conditions: with pgr1a_mouse Pagr1a

| Variant | effect of a mutation on the interaction |
| --- | --- |
| W165R | disrupting interaction |
